Numbering of substitutions follows the chain as printed.
How the values were obtained:
[1] = molecular target: T1, biotinylated human CD5-HIS (human, UniProt P06127 25-372, biotinylated); assay: BLI; KD on human CD5 divided by KD on cynomolgus CD5
T1 construct: Loaded onto streptavidin Octet pins; also called huCD5; SA-human CD5; not shown: HIS tag
T1 sequence (looked up): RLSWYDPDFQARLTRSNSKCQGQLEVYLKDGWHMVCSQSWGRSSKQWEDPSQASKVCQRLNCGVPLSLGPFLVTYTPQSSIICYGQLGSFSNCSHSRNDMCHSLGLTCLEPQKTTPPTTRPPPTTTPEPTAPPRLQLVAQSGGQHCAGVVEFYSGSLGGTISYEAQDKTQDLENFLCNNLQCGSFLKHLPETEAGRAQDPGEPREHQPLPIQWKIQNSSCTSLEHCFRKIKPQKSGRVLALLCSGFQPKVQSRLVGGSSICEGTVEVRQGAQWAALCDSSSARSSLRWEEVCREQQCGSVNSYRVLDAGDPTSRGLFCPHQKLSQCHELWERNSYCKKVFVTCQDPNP

[2] = molecular target: T1, biotinylated human CD5-HIS; assay: BLI (Octet), biotinylated CD5-HIS on streptavidin pins
[3] = molecular target: T2, biotinylated cynomolgus CD5-HIS (cynomolgus); assay: as above
T2 construct: Loaded onto streptavidin Octet pins; also called CynoCD5; SA-Cyno CD5

[4] = molecular target: T3, human CD5 on transfected HEK293T cells (human, UniProt P06127 25-495); assay: flow cytometry, periplasmic extract on transfected HEK293T cells
T3 construct: whole, on cells; also called huCD5; Human CD5 Cells
T3 sequence (looked up): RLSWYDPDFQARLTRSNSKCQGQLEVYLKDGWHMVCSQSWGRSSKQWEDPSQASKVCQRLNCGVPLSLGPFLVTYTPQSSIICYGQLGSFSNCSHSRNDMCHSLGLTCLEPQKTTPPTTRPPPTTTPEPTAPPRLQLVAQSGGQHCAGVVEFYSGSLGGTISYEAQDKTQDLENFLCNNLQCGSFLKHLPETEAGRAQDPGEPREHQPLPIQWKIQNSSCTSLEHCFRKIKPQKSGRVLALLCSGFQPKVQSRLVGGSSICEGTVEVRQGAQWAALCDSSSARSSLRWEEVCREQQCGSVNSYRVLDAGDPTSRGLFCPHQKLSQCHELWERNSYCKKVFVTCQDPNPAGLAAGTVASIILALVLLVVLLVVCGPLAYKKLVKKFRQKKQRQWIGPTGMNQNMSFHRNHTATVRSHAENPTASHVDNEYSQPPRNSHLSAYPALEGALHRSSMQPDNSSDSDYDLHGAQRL

[5] = molecular target: T4, cynomolgus CD5 on transfected HEK293T cells (cynomolgus (Table 8B); rhesus macaque …); assay: as above
T4 construct: whole, on cells; also called Cynomolgus CD5 Cells; rhesus macaque (Macaca mulatta) CD5

[6] = molecular target: T1, biotinylated human CD5-HIS; assay: BLI (Octet), biotinylated CD5-HIS on streptavidin pins, periplasmic extract, off-rate
[7] = molecular target: T2, biotinylated cynomolgus CD5-HIS; assay: as above

B1: ABTx319 (VHH)
VHH: QVQLVESGGGLVQPGGSLRLSCAASGFTFSMYSMSWVRQAPGKRLEWVSSISTGARDTAYADSVKGRFTISRDNADNTLYLHMNNLKPEDTAVYYCANGDLRYGPDGYDYRGQGTQVTVSS
notes: VHH in periplasmic extract of the phage display clone; also called clone 917; not shown: c-myc tag of the phagemid construct (detected with anti-c-myc 9E10)
B1 was tested, and the “Hu/Cyno KD” value [1] was 0.8, the Kd [2] was 1.8 nM and the koff [2] was 0.00013 s⁻¹. It also gave a kon [2] of 72000 M⁻¹ s⁻¹, a Kd [3] of 2.2 nM and a koff [3] of 0.0002 s⁻¹. For the same binder, the kon [3] was 94000 M⁻¹ s⁻¹, the “percent of cells showing binding” value [4] was 74.8% and the “percent of cells showing binding” value [5] was 62.6%. It also gave a koff [6] of 0.0116 s⁻¹ and a koff [7] of 0.0531 s⁻¹.

B2: ABTx322 (VHH)
VHH: QLQLVESGGGLVQPGGSLRLSCAASGSDFLVDATTWFRQAPGNQREFVAIMDIGGVTEYADSVKGRFTISRDHTKNTVYLQMNSLKVEDTAVYYCNTRGLWGQGTLVTVSS
notes: VHH in periplasmic extract of the phage display clone; also called clone 660; not shown: c-myc tag of the phagemid construct (detected with anti-c-myc 9E10)
With B2 the “Hu/Cyno KD” value [1] was 0.9, the Kd [2] was 1 nM and the koff [2] was 0.0001 s⁻¹. The kon [2] was 95000 M⁻¹ s⁻¹, the Kd [3] was 1.1 nM and the koff [3] was 0.00011 s⁻¹. The kon [3] was 97000 M⁻¹ s⁻¹, the “percent of cells showing binding” value [4] was 70.1% and the “percent of cells showing binding” value [5] was 82.3%. It also gave a koff [6] of 0.000331 s⁻¹ and a koff [7] of 0.0028 s⁻¹.

B3: ABTx316 (VHH)
VHH: QVQLVESGGGLVQAGGSLRLSCAASGGTVSSYAMGWFRQAPGKEREFVAVISWSGGRTYYADSVKGRFTISRDNAKNTVNLQMNSLKPEDTAVYYCAADPWTSDSDYERLTMYDYWGQGTQVTVSS
notes: VHH in periplasmic extract of the phage display clone; also called clone 525; not shown: c-myc tag of the phagemid construct (detected with anti-c-myc 9E10)
For B3, the “Hu/Cyno KD” value [1] was 0.9, the Kd [2] was 1.4 nM and the koff [2] was 0.00015 s⁻¹. For the same binder, the kon [2] was 110000 M⁻¹ s⁻¹, the Kd [3] was 1.6 nM and the koff [3] was 0.00021 s⁻¹. For the same binder, the kon [3] was 130000 M⁻¹ s⁻¹, the “percent of cells showing binding” value [4] was 85.8% and the “percent of cells showing binding” value [5] was 81.7%. For the same binder, the koff [6] was 0.0054 s⁻¹ and the koff [7] was 0.0343 s⁻¹.

B4: ABTx321 (VHH)
VHH: QLQLVESGGGLVQPGESLRLSCVVSGDIFSFVGWGWYRQAPGKQREVVAQISTGGLTNYADSVKGRFAISRDNAKRTVYLQMNSLKFEDTAVYYCNVPGHPWGQGTQVTVSS
notes: VHH in periplasmic extract of the phage display clone; also called clone 1043; not shown: c-myc tag of the phagemid construct (detected with anti-c-myc 9E10)
For B4, the “Hu/Cyno KD” value [1] was 0.6, the Kd [2] was 0.23 nM and the koff [2] was 5.2e-05 s⁻¹. The kon [2] was 220000 M⁻¹ s⁻¹, the Kd [3] was 0.37 nM and the koff [3] was 8.8e-05 s⁻¹. For the same binder, the kon [3] was 240000 M⁻¹ s⁻¹, the “percent of cells showing binding” value [4] was 84.9% and the “percent of cells showing binding” value [5] was 87.7%. The koff [6] was 0.0077 s⁻¹ and the koff [7] was 0.0136 s⁻¹.

B5: ABTx328 (VHH)
VHH: B4 VHH with L2V, V32I, V47L, S52N, N58D, A68T, V97F, P101S
notes: VHH in periplasmic extract of the phage display clone; also called clone 1050; not shown: c-myc tag of the phagemid construct (detected with anti-c-myc 9E10)
In the case of B5, the “Hu/Cyno KD” value [1] is reported as 0.4, the Kd [2] is reported as 0.36 nM and the koff [2] is reported as 9.2e-05 s⁻¹. It also gave a kon [2] of 260000 M⁻¹ s⁻¹, a Kd [3] of 0.93 nM and a koff [3] of 0.00018 s⁻¹. For the same binder, the kon [3] was 190000 M⁻¹ s⁻¹, the “percent of cells showing binding” value [4] was 45.4% and the “percent of cells showing binding” value [5] was 40.7%. It also gave a koff [6] of 7.04e-05 s⁻¹ and a koff [7] of 6.34e-05 s⁻¹.

B6: ABTx320 (VHH)
VHH: QVQLVESGGGLVQAGGSLRLSCAASGPAFSSSGMGWFRQAPGKAREFVASMDWTGGSTYYGDSVKGRFTVSRDNAKMTVHLQMNSLRPEDTAVYYCARGTSGVAAVNLRGFFSWGPGTQVTVSS
notes: VHH in periplasmic extract of the phage display clone; also called clone 157; not shown: c-myc tag of the phagemid construct (detected with anti-c-myc 9E10)
B6 was tested, and the “Hu/Cyno KD” value [1] was 1.1, the Kd [2] was 2.8 nM and the koff [2] was 0.00019 s⁻¹. For the same binder, the kon [2] was 69000 M⁻¹ s⁻¹, the Kd [3] was 2.6 nM and the koff [3] was 0.0002 s⁻¹. The kon [3] was 76000 M⁻¹ s⁻¹, the “percent of cells showing binding” value [4] was 80.3% and the “percent of cells showing binding” value [5] was 77.7%. For the same binder, the koff [6] was 0.00137 s⁻¹ and the koff [7] was 0.000757 s⁻¹.

B7: ABTx318 (VHH)
VHH: QVQLQESGGGSVQAGGSLRLSCAASGRAFSAYAMGWFRQAPGKEREFVAAINWNGDTALRWNGFATRYADSVKGRFTISRVIAKNTVNLQMNSLKPEDTAVYYCAADTVVSGSYYLAARAEDYEYWGQGTQVTVSS
notes: VHH in periplasmic extract of the phage display clone; also called clone 333; not shown: c-myc tag of the phagemid construct (detected with anti-c-myc 9E10)
In the case of B7, the “Hu/Cyno KD” value [1] is reported as 1, the Kd [2] is reported as 2.5 nM and the koff [2] is reported as 0.00016 s⁻¹. It also gave a kon [2] of 65000 M⁻¹ s⁻¹, a Kd [3] of 2.4 nM and a koff [3] of 0.00022 s⁻¹. The kon [3] was 91000 M⁻¹ s⁻¹, the “percent of cells showing binding” value [4] was 84.9% and the “percent of cells showing binding” value [5] was 67.1%. For the same binder, the koff [6] was 0.0138 s⁻¹ and the koff [7] was 0.0546 s⁻¹.

Reference: patent publication US20260159603A1 (BEAM THERAPEUTICS, published 2026)
